The record followed here is the supplement of paper PMC9170038.

The test system of this data set is MS2 coat protein. Kind of data set: apparent KD of MS2 coat protein; designed switch direction (-1 OFF switch, 1 ON switch): -1; higher = weaker reporter binding. A digest of the protocol:
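Apparent KD, taken as the median over clusters for each design, was obtained by curve-fitting normalised cluster fluorescence. Designed RNA switches had been transcribed on Illumina chips by stalled E. coli RNA polymerase and titrated with SNAP-549-labelled MS2 coat protein, doubling from 0.7 or 1.5 nM to 3 µM.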

[1] abbreviates: input ligand: microRNA oligo, concentration not stated.
Setting [2] is: Eterna round: R95, input ligand: microRNA oligo, concentration not stated.

As to “GCCGUCGUUGUGAGGAUAUGCCUAUGGAUACGUAGGCAGAAGGCACAUGAGGAUCACCCAUGUCCAAAGACGGC [JL-BMX4-4.28 Eli mod] (Eterna round: R97, puzzle: Brourd's mod of Exclusion 4)”, the “apparent KD of MS2 coat protein” value stood at 1000 nM (input ligand: FMN 200 uM) and 101 nM (input ligand: none).

Take “GCCGUUGAAGGAUAUGCUGAACUUGAGGUGCGUCCAUCCACACAUGAGGAUCACCCAUGUAGAAGGUCAACGGA [Eternabot (L2) Solution 67] (Eterna round: R97, puzzle: Exclusion 2)”: the “apparent KD of MS2 coat protein” value (input ligand: FMN 200 uM) came out at 456 nM and the “apparent KD of MS2 coat protein” value (input ligand: none) is 287 nM.

Regarding “GCCUAACAUGAGGAUCACCCAUGUAAGGAUAUGAUUAGUCGUUUGUAAGCAGCGCGACUCAGAAGGUACUUGGG [Eternabot (L1) Solution 34] (Eterna round: R97, puzzle: Exclusion 1)”, the “apparent KD of MS2 coat protein” value (input ligand: FMN 200 uM) is 72 nM and the “apparent KD of MS2 coat protein” value (input ligand: none) is 25.4 nM.

In the case of “GCCUCACUUGAGGAUCACCCAAGUCAGGAUAUAUCACUAGCGUGGAAACCACGCUGGCAUAGAAGGGACAAAGA [Ergeeddi] (Eterna round: R97, puzzle: Exclusion 1)”, the “apparent KD of MS2 coat protein” value runs as follows: (input ligand: FMN 200 uM) 27.1 nM; (input ligand: none) 17.3 nM.

Consider “GCCUCUCAUGUGAGGAUAUCCGGACUAUACAGACAGGAGAAGGCACAUGAGGAUCACCCAUGUCACGCACACUU [BmEX4 B.5] (Eterna round: R97, puzzle: Brourd's mod of Exclusion 4)”, for which the “apparent KD of MS2 coat protein” value was 27.1 nM (input ligand: FMN 200 uM) and 189 nM (input ligand: none).

Turning to “GCCUGCUGGCGAGGAUAUUCUGUGCGGUUCCGGCUCGUGUCUGUUACAUGAGGAUCACCCAUGUGGGAGAAGGUGUCUGUGGCC [Design 100] (Eterna round: R96, puzzle: Exclusion NG 2)”, the “apparent KD of MS2 coat protein” value turned out to be 12.5 nM (input ligand: FMN 200 uM), 10.1 nM under setting [1] and 14.7 nM (input ligand: none).

Take “GCCUGUAGUGUGAGGAUAUGCUGCUCCAUAGAGCAGCAGAAGGCACAUGAGGAUCACCCAUGUGAUAACAGGCA (Eterna round: R97, puzzle: Brourd's mod of Exclusion 4)”: the “apparent KD of MS2 coat protein” value (input ligand: FMN 200 uM) was found to be 443 nM and the “apparent KD of MS2 coat protein” value (input ligand: none) came to 151 nM.

With “GCCUUAUCCGUCAGGAUAUACAGCCGCUCCCUGUUGUAGAAGGGACAUGAGGAUCACCCAUGUACGUACCAUUG [alecazam6] (Eterna round: R97, puzzle: Brourd's mod of Exclusion 4)”, the “apparent KD of MS2 coat protein” value runs as follows: (input ligand: FMN 200 uM) 31.8 nM; (input ligand: none) 39.1 nM.

On to “GCGAGAUGAGGAUAUUAGUGGAAUGACAUGAGGAUCACCCAUGUUACGCAUGUCGAGCUUUGAGAAGGCAUUACGA [Eternabot (L2) Solution 75] (Eterna round: R97, puzzle: Exclusion 5)”, for which the “apparent KD of MS2 coat protein” value is, setting by setting: (input ligand: FMN 200 uM) 26.2 nM; (input ligand: none) 31.3 nM.

As for “GCGAGGUUAGGAUAUGCUGGCGUGGACUUGAGGAUCACCCAAGUGACUGCGGGCUAGGGCGCAGAAGGGACAAAAU [Usti] (Eterna round: R97, puzzle: Exclusion 5)”, the “apparent KD of MS2 coat protein” value reads like this: (input ligand: FMN 200 uM) 45.1 nM; (input ligand: none) 45.6 nM.

Regarding “GCGCACCUACCAAAAGGUAGGACAACAUGAGGAUCACCCAUGUAGGAUAUCGAUUGCUUUGCAGUCGAGAAGGACAUGAUGCGC [JL ENG3 3.80 Mod 7] (Eterna round: R96, puzzle: Exclusion NG 3)”, the “apparent KD of MS2 coat protein” value is 111 nM (input ligand: FMN 200 uM), 25.9 nM under setting [1] and 34.7 nM (input ligand: none).

In the case of “GCGCACCUACCAAAAGGUAGGCUAACAUGAGGAUCACCCAUGUAGGAUAUCGAUUGCUUUGCAGUCGAGAAGGACGUGAUGCGC [JL ENG3 3.80 Mod 19] (Eterna round: R96, puzzle: Exclusion NG 3)”, the “apparent KD of MS2 coat protein” value (input ligand: FMN 200 uM) worked out at 25.9 nM, the “apparent KD of MS2 coat protein” value under setting [1] was 17.2 nM and the “apparent KD of MS2 coat protein” value (input ligand: none) was 23.3 nM.

Regarding “GCGCACCUACCAAAAGGUAGGUCCACAUGAGGAUCACCCAUGUAGGAUAUCGAUUGCUUUGCAGUCGAGAAGGACGUGAUGCGC [JL ENG3 3.80 Mod 16] (Eterna round: R96, puzzle: Exclusion NG 3)”, the “apparent KD of MS2 coat protein” value reads like this: (input ligand: FMN 200 uM) 51.6 nM; under setting [1], 27.3 nM; (input ligand: none) 32.3 nM.

Regarding “GCGCCAUCGUGAGAUGGCGUAACUACAUGAGGAUCACCCAUGUAGGAUAUCGAUUGCUUUGCAGUCGAGAAGGGCAAGGGAUAU [JL ENG3 3.87] (Eterna round: R96, puzzle: Exclusion NG 3)”, the “apparent KD of MS2 coat protein” value runs as follows: (input ligand: FMN 200 uM) 15.3 nM; under setting [1], 13.5 nM; (input ligand: none) 16.9 nM.

In the case of “GCGCCAUCGUGAGAUGGCGUAACUACAUGAGGAUCACCCAUGUAGGAUAUCGAUUGCUUUGCAGUCGAGAAGGGCGAGGGAUUU [JL ENG3 3.89] (Eterna round: R96, puzzle: Exclusion NG 3)”, the “apparent KD of MS2 coat protein” value by setting is: (input ligand: FMN 200 uM) 18.1 nM; under setting [1], 13.2 nM; (input ligand: none) 17.6 nM.

For the sequence “GCGCCAUCGUGAGAUGGCGUAAGUACAUGAGGAUCACCCAUGUAGGAUAUCGAUUGCUUUGCAGUCGAGAAGGGCGUGAUAAGU [JL ENG3 3.81] (Eterna round: R96, puzzle: Exclusion NG 3)”, the “apparent KD of MS2 coat protein” value reads like this: (input ligand: FMN 200 uM) 97.3 nM; under setting [1], 64.1 nM; (input ligand: none) 76.9 nM.

With “GCGCCAUCGUGAGAUGGCGUAAUUACAUGAGGAUCACCCAUGUAGGAUAUCGAUUGCUUUGCAGUCGAGAAGGGCAUGAUAAGU [JL ENG3 3.79] (Eterna round: R96, puzzle: Exclusion NG 3)”, the “apparent KD of MS2 coat protein” value by setting is: (input ligand: FMN 200 uM) 49.6 nM; under setting [1], 34.6 nM; (input ligand: none) 43.3 nM.

For “GCGCCAUCGUGAGAUGGCGUACCGACAUGAGGAUCACCCAUGUAGGAUAUCGAUUGCUUUGCAGUCGAGAAGGGCAUGAUAAGU [JL ENG3 3.77] (Eterna round: R96, puzzle: Exclusion NG 3)”, the “apparent KD of MS2 coat protein” value by setting is: (input ligand: FMN 200 uM) 20.9 nM; under setting [1], 13.4 nM; (input ligand: none) 21.4 nM.

Consider “GCGCGAAGCUAGGAUAUGGGAGCGUCUUCGCUCCCAGAAGGAGCCACAUGAGGAUCACCCAUGUGGUGAUCCUG [eternacac ex6r4 sub14] (Eterna round: R97, puzzle: Exclusion 6)”, for which the “apparent KD of MS2 coat protein” value was determined as 17 nM (input ligand: FMN 200 uM) and 16.5 nM (input ligand: none).

On to “GCGGAAAACUUAGGAUAUCAGGGCUGUACAUGAGGAUCACCCAUGUGAUAGCUCUAACACGGUCCUGAGAAGGGAGAGCCCGGA [Biorenen] (Eterna round: R96, puzzle: Exclusion NG 2)”, for which the “apparent KD of MS2 coat protein” value runs as follows: (input ligand: FMN 200 uM) 109 nM; under setting [1], 49.7 nM; (input ligand: none) 73 nM.

On to “GCGGACAAGAUGGAGACAUCAGAGACAUGAGGAUCACCCAUGUAGGAUAUCGAUUCGAAACGAAUCGAGAAGGGCAUAGUCCGC [JL denovo 2] (Eterna round: R96, puzzle: Exclusion NG 3)”, for which the “apparent KD of MS2 coat protein” value by setting is: (input ligand: FMN 200 uM) 16.8 nM; under setting [1], 13.3 nM; (input ligand: none) 19.2 nM.

For “GCGGAGUAUGUAGGAUAUCGGUCAGUUUCUGAUCGAGAAGGACAUGAGGAUCACCCAUGUAAAUUCCUCGCUUUGUGAGGCCGC [JL ENG1 3.65] (Eterna round: R96, puzzle: Exclusion NG 1)”, the “apparent KD of MS2 coat protein” value by setting is: (input ligand: FMN 200 uM) 21.6 nM; under setting [1], 12.8 nM; (input ligand: none) 17.1 nM.

On to “GCGGGCUUUUAGGUUCUUAACAUGAGGAUCACCCAUGUGCUCGUCUUGCCGGCCGGCGGGCCGCCGGCCGGGCUUGU (Eterna round: R97, puzzle: Sensor, turn-off variant 1)”, for which the “apparent KD of MS2 coat protein” value by setting is: (input ligand: FMN 200 uM) 66.4 nM; (input ligand: none) 68.2 nM.

Take “GCGUACUGAGGAUAUACAUGAGGAUCACCCAUGUGACACAGCAUUUAUUGAUAAAUUUGUAGAAGGCAGUAGGC [JR_Ex3_Sub059] (Eterna round: R97, puzzle: Exclusion 3)”: the “apparent KD of MS2 coat protein” value (input ligand: FMN 200 uM) is 144 nM and the “apparent KD of MS2 coat protein” value (input ligand: none) was 25 nM.

Regarding “GCGUACUGAGGAUAUACAUGAGGAUCACCCAUGUGACUAAGAUUUUAGUGAUGAUUUUGUAGAAGGCAGUAUGC [JR_Ex3_Sub061] (Eterna round: R97, puzzle: Exclusion 3)”, the “apparent KD of MS2 coat protein” value amounted to 344 nM (input ligand: FMN 200 uM) and 91.4 nM (input ligand: none).

Consider “GCGUAUGAGCAGGAUAUCCGACGGGAAUCCAAAGGAGAAGGGCUCACAUGAGGAUCACCCAUGUGGUCCUAAAC [Vequat] (puzzle: Exclusion 6)”, for which the “apparent KD of MS2 coat protein” value under setting [2] stood at 19.4 nM.

“GCGUCGAGUGUGAGGAUAUGCUGGUCCUUGGAUCAGCAGAAGGCACAUGAGGAUCACCCAUGUGAAUACGAUGC [JL bmx4 3.14] (puzzle: Brourd's mod of Exclusion 4)”: the “apparent KD of MS2 coat protein” value under setting [2] amounted to 21.2 nM.

In the case of “GCUAGAGCAGGAUAUUUAAAUCCUCACAUGAGGAUCACCCAUGUAGUCGAAAGACUAAGAAGAGAAGGGCUCUAGC [Omei Ex5 E20] (Eterna round: R97, puzzle: Exclusion 5)”, the “apparent KD of MS2 coat protein” value (input ligand: FMN 200 uM) was 951 nM and the “apparent KD of MS2 coat protein” value (input ligand: none) was determined as 230 nM.

As for “GCUAGAGCAGGAUAUUUAGAUCCUCACAUGAGGAUCACCCAUGUGGCCGAAAGGCUAAGAAGAGAAGGGCUCUAGC [Omei Ex5 E22] (Eterna round: R97, puzzle: Exclusion 5)”, the “apparent KD of MS2 coat protein” value worked out at 199 nM (input ligand: FMN 200 uM) and 789 nM (input ligand: none).

For the sequence “GCUAGGAAUGUCAGGAUAUGCUGUUCCUUGGAACAGCAGAAGGGACAUGAGGAUCACCCAUGUGCUAACCUAGC [Mat - Exclusion 4 - JL Mod - D5] (Eterna round: R97, puzzle: Brourd's mod of Exclusion 4)”, the “apparent KD of MS2 coat protein” value runs as follows: (input ligand: FMN 200 uM) 99.2 nM; (input ligand: none) 24.4 nM.
